{"source": "patent US8242083B2", "about": "“Kinase substrates” (PerkinElmer Health Sciences, Inc., priority 2008, dated 2012)", "format_in_all_cases": "biochemical", "key": {"FLT1": {"target": "FLT1 (Homo sapiens, UniProt P17948)", "sequence (P17948 27-1338, species assumed)": "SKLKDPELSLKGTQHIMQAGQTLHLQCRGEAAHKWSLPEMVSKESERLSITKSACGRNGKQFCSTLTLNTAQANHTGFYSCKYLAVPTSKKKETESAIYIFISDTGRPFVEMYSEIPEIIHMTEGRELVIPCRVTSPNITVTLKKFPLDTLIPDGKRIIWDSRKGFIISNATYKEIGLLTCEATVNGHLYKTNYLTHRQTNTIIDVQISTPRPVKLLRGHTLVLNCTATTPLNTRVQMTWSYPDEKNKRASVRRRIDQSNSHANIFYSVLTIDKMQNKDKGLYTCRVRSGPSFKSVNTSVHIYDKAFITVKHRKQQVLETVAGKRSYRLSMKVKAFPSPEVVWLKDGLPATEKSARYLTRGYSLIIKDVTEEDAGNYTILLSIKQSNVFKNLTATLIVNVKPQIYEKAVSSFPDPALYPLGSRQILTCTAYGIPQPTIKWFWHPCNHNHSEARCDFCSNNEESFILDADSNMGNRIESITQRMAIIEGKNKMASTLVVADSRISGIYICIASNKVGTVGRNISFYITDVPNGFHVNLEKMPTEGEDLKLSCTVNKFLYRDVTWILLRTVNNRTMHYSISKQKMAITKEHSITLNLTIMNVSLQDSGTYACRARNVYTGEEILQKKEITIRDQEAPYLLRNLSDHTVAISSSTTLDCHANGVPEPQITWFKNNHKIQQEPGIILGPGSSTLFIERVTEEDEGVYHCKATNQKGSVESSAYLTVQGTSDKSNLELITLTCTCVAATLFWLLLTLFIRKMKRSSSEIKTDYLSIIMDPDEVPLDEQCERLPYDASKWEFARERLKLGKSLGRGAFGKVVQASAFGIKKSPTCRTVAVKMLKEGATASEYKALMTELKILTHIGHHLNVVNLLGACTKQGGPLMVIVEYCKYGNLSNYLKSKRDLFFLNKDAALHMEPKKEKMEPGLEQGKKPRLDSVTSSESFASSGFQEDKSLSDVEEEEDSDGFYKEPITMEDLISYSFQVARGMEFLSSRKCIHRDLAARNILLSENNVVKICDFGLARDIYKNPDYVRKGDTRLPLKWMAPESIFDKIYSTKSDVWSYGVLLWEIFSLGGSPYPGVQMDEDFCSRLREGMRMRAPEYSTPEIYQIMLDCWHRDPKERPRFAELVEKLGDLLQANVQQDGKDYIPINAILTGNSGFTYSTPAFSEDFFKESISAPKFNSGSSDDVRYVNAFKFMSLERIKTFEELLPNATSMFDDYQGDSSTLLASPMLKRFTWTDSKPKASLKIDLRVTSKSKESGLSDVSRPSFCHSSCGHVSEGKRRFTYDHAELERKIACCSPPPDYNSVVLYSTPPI", "assay": "TR-FRET kinase assay, FLT1", "details": "Kinase Concentration 0.25 nM; 50 nM ULight-labeled substrate, 200 micromolar ATP, 2 hours", "protocol": "(§1) TR-FRET kinase assays are performed under standardized conditions: various individual kinases are incubated with 50 nM of kinase substrate BRB1 labeled with the TR-FRET acceptor dye ULight (PerkinElmer) and 200 micromolar ATP in 10 μL of kinase assay buffer (50 mM HEPES pH7.5, 10 mM MgCl2, 3 mM MnCl2, 1 mM EGTA, 2 mM DTT and 0.01% Tween-20) for 2 hours at room temperature. Reactions are stopped with EDTA, and anti-phospho-tyrosine antibodies (clone PT66) labeled with the TR-FRET europium chelate donor dye are added to a final concentration of 2 nM in a final volume of 20 μL. The TR-FRET signal emitted at 665 nm is read one hour after the addition of antibodies using a TR-FRET plate reader such as the Envision® Multilabel Plate reader (PerkinElmer). The emitted signal at 665 nm is proportional to the extent of peptide phosphorylation, Control reactions indicative of background are performed excluding ATP from the reaction.\n(§2) Assay conditions are identical to those used described for FIG. 1."}, "FGFR4": {"target": "FGFR4 (Homo sapiens, UniProt P22455)", "assay": "TR-FRET kinase assay, FGFR4", "details": "Kinase Concentration 3 nM; 50 nM ULight-labeled substrate, 200 micromolar ATP, 2 hours", "protocol": "as §1, §2"}, "MUSK": {"target": "T1, MUSK (Homo sapiens, UniProt O15146)", "T1 sequence (O15146 24-869)": "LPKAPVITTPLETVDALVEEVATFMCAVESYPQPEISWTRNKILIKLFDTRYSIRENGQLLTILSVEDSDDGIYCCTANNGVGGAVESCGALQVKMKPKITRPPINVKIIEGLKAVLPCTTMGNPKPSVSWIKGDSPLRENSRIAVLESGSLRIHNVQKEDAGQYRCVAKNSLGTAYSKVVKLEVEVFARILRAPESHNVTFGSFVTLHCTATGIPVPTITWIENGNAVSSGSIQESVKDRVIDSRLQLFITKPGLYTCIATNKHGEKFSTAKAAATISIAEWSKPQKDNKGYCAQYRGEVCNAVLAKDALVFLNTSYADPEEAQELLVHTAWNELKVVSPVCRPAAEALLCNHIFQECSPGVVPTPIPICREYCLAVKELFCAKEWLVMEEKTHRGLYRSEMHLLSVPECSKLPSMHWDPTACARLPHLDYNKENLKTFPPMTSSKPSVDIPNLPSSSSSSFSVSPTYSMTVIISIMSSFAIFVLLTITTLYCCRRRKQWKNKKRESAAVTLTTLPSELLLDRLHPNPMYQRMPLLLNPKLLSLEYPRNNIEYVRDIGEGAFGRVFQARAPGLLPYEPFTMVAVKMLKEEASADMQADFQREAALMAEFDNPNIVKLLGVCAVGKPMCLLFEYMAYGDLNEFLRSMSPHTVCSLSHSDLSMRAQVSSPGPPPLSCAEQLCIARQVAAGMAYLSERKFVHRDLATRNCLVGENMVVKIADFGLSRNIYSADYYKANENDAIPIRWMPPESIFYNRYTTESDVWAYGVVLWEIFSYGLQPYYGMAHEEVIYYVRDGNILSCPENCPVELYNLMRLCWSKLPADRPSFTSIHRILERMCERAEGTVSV", "assay": "TR-FRET kinase assay, MUSK", "details": "Kinase Concentration 1 nM; 50 nM ULight-labeled substrate, 200 micromolar ATP, 2 hours", "protocol": "as §1, §2"}, "FER": {"target": "FER (Homo sapiens, UniProt P16591)", "sequence (P16591 whole entry, species assumed)": "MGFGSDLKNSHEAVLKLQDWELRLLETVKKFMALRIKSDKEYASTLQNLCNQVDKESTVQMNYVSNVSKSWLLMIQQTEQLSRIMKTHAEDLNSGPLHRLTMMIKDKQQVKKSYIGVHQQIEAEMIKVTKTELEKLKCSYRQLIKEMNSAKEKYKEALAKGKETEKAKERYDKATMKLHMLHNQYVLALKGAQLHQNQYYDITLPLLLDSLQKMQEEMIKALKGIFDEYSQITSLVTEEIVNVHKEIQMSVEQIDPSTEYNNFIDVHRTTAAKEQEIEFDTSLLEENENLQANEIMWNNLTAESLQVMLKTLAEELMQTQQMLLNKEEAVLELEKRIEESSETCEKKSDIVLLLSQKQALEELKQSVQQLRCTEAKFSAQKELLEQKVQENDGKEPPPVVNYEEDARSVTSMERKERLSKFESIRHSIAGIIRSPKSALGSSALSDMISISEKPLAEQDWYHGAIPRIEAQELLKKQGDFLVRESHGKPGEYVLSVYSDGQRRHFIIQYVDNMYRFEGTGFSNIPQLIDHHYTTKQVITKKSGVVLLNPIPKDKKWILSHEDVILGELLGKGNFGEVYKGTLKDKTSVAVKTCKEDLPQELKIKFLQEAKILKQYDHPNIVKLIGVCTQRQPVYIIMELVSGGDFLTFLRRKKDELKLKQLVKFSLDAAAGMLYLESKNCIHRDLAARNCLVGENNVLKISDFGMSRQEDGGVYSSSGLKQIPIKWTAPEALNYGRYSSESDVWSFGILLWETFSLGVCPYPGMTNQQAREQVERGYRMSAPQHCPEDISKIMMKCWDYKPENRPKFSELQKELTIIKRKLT", "assay": "TR-FRET kinase assay, FER", "details": "Kinase Concentration 0.25 nM; 50 nM ULight-labeled substrate, 200 micromolar ATP, 2 hours", "protocol": "as §1, §2"}, "TRKB (NTRK2)": {"target": "TRKB (NTRK2) (Homo sapiens, UniProt Q16620)", "assay": "TR-FRET kinase assay, TRKB (NTRK2)", "details": "Kinase Concentration 0.5 nM; 50 nM ULight-labeled substrate, 200 micromolar ATP, 2 hours", "protocol": "as §1, §2"}, "SRC": {"target": "SRC (Homo sapiens, UniProt P12931)", "assay": "TR-FRET kinase assay, SRC", "details": "Kinase Concentration 0.5 nM; 50 nM ULight-labeled substrate, 200 micromolar ATP, 2 hours", "protocol": "as §1, §2"}, "SYK": {"target": "SYK (Homo sapiens, UniProt P43405)", "assay": "TR-FRET kinase assay, SYK", "details": "Kinase Concentration 0.5 nM; 50 nM ULight-labeled substrate, 200 micromolar ATP, 2 hours", "protocol": "as §1, §2"}, "LYNb": {"target": "LYNb (Homo sapiens, UniProt P07948)", "sequence (P07948 1-491 isoform P07948-2, species assumed)": "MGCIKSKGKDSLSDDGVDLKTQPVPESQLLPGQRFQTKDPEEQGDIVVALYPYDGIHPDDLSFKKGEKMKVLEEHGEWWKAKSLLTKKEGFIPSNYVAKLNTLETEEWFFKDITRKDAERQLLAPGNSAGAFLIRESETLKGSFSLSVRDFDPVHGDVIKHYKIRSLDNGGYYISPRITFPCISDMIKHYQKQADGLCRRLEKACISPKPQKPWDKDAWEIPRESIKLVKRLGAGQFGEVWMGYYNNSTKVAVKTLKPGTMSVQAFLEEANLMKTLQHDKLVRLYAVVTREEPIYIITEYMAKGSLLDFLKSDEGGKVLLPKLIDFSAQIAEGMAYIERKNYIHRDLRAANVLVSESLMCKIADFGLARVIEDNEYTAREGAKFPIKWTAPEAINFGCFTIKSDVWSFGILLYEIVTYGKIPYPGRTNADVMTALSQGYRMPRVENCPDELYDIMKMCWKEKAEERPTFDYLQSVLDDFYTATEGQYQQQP", "assay": "TR-FRET kinase assay, LYNb", "details": "Kinase Concentration 1 nM; 50 nM ULight-labeled substrate, 200 micromolar ATP, 2 hours", "protocol": "as §1, §2"}, "EphA1": {"target": "T2, EphA1 (Homo sapiens, UniProt P21709)", "T2 sequence (P21709 26-976)": "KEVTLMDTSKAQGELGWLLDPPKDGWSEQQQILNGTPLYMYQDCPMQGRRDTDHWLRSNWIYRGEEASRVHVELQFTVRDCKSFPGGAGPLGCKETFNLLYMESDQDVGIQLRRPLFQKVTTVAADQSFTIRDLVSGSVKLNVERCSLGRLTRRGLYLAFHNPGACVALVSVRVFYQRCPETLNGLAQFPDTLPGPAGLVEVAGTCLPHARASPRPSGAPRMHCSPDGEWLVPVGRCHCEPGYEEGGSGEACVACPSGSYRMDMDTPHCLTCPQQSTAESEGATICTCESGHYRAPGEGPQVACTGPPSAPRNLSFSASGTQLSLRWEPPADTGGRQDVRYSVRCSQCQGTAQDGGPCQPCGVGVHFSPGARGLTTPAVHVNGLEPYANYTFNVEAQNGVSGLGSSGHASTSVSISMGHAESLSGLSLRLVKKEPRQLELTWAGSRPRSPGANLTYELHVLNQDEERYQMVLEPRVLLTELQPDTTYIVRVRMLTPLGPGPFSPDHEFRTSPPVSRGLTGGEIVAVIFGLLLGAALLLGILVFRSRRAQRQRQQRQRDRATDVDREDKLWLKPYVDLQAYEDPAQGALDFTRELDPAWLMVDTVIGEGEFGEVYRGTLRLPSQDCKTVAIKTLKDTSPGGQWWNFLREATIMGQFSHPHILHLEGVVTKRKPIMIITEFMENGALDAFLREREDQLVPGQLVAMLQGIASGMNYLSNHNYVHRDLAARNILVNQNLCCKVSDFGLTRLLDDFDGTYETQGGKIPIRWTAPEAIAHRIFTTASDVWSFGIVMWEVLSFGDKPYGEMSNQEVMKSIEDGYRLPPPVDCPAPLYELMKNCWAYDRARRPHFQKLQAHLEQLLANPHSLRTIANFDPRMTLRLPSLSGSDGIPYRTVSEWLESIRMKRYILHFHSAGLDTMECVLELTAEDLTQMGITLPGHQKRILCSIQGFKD", "assay": "TR-FRET kinase assay, EphA1", "details": "Kinase Concentration 0.5 nM; 50 nM ULight-labeled substrate, 200 micromolar ATP, 2 hours", "protocol": "as §1, §2"}, "IGF1R": {"target": "IGF1R (Homo sapiens, UniProt P08069)", "assay": "TR-FRET kinase assay, IGF1R", "details": "Kinase Concentration 0.25 nM; 50 nM ULight-labeled substrate, 200 micromolar ATP, 2 hours", "protocol": "as §1, §2"}, "DGFR [T790M]": {"target": "DGFR [T790M] (Homo sapiens, UniProt P00533, T790M)", "assay": "TR-FRET kinase assay, DGFR [T790M]", "details": "Kinase Concentration 0.5 nM; 50 nM ULight-labeled substrate, 200 micromolar ATP, 2 hours", "protocol": "as §1, §2"}, "RET": {"target": "RET (Homo sapiens, UniProt P07949)", "assay": "TR-FRET kinase assay, RET", "details": "Kinase Concentration 0.5 nM; 50 nM ULight-labeled substrate, 200 micromolar ATP, 2 hours", "protocol": "as §1, §2"}}}
{"sequence": "C AYE AYE AYE K EYA EYA EYA K AYA EYE R (CAYEAYEAYEKEYAEYAEYAKAYAEYER; tyrosine kinase substrate peptide) [BRB1]", "values": [{"measurement": "Signal to Noise ratio with BRB1 Peptide", "setting": "FLT1", "result": 4.1}, {"measurement": "Signal to Noise ratio with BRB1 Peptide", "setting": "FGFR4", "result": 17.7}, {"measurement": "Signal to Noise ratio with BRB1 Peptide", "setting": "MUSK", "result": 3.1}, {"measurement": "Signal to Noise ratio with BRB1 Peptide", "setting": "FER", "result": 31.0}, {"measurement": "Signal to Noise ratio with BRB1 Peptide", "setting": "TRKB (NTRK2)", "result": 28.0}, {"measurement": "Signal to Noise ratio with BRB1 Peptide", "setting": "SRC", "result": 31.7}, {"measurement": "Signal to Noise ratio with BRB1 Peptide", "setting": "SYK", "result": 24.6}, {"measurement": "Signal to Noise ratio with BRB1 Peptide", "setting": "LYNb", "result": 33.1}, {"measurement": "Signal to Noise ratio with BRB1 Peptide", "setting": "EphA1", "result": 10.8}, {"measurement": "Signal to Noise ratio with BRB1 Peptide", "setting": "IGF1R", "result": 25.1}, {"measurement": "Signal to Noise ratio with BRB1 Peptide", "setting": "DGFR [T790M]", "result": 3.3}, {"measurement": "Signal to Noise ratio with BRB1 Peptide", "setting": "RET", "result": 20.3}]}
